Biological target: T1, Pneumolysin (Ply) (Streptococcus pneumoniae, UniProt Q04IN8)
T1 chain: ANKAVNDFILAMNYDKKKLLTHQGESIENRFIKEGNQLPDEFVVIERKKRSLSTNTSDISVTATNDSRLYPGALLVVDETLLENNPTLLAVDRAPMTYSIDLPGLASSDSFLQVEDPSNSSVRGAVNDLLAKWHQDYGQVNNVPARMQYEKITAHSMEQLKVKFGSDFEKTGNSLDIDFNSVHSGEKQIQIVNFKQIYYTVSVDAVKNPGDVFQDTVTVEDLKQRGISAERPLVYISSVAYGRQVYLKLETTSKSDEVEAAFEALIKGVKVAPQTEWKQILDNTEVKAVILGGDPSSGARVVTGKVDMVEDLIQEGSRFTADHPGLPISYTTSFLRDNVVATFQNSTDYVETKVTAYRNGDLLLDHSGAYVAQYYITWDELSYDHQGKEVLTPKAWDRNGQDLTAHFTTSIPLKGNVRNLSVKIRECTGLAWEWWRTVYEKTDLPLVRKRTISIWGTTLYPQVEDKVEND
Experiment: ITC; given as Ka

B1: SpnPrsA (protein)
chain: CSKGSEGADLISMKGDVITEHQFYEQVKNNPSAQQVLLNMTIQKVFEKQYGSELDDKEVDDTIAEEKKQYGENYQRVLSQAGMTLETRKAQIRTSKLVELAVKKVAEAELTDEAYKKAFDEYTPDVTAQIIRLNNEDKAKEVLEKAKAEGADFAQLAKDNSTDEKTKENGGEITFDSASTEVPEQVKKAAFALDVDGVSDVITATGTQAYSSQYYIVKLTKKTEKSSNIDDYKEKLKTVILTQKQNDSTFVQSIIGKELQAANIKVKDQAFQNIFTQYIGGGDSSSSSSTSNE
Work on B1 yielded a Kd of 119 nM.

Source: paper PMC11853100 (2025)
